Among the data in doi:10.1101/189324 are Kd and ThT fluorescence, heat-induced fibrillation of insulin with apo-SCGN (1:2 ratio) values, retold here.

Like-named read-outs stand apart in the source and are kept apart here.

Assay [1] addresses Insulin (purified, used in vitro). Briefly: BLI.
For assay [2] the target is unchanged.
Assay [3] has the same target. The assay is described as follows: BLI. This is another data set of the same source. Background: In BLI a coated tip is dipped into the sample, and binding shifts an interference pattern.

B1: Recombinant His-tagged secretagogin (SCGN) (natural protein)
chain: MDNARRKTPARLDAACFWQIWQRFDKEEKGYIRETELDAFFDHLLAKSGTEDTLMEENVQKVKEQLMTSHNVSKEGRILMKELASMFLSEDENFLLFFRLETPLDNSVEFMQIWRKYDADSSGFISAAELCNFLRDLFLHHKKNISEAELEEYTSTMMKIFDKNKDGRLDLNDLARILALQENFLLQFKMDASSTEERKRDFEKIFAHYDVSKTGALEGPEVDGFVKDMMELVQPSISGVDLDKFREILLRHCDVNKDGKIQKSELALCLGLKINP
Broadly, the Kd is a measure of binding affinity in units of concentration. A higher Kd goes with weaker binding. On to B1, for which the Kd was 1840 nM in assay [1] and 1450 nM in assay [3]. In addition, the ThT fluorescence, heat-induced fibrillation of insulin with apo-SCGN (1:2 ratio) in assay [2] stood at 50%.
